# Article PMC12065913
# Key:
# [1] = molecular target: AceE fragment 2, stalled nascent chain (E. coli) (UniProt P0AFG8); test: optical tweezers with two-color confocal single-molecule fluorescence; single stalled ribosome-nascent chain complexes tethered between beads by DNA handles; 100 nM labelled TF and 100 nM labelled DnaK in solution, with or without 17 nM DnaJ and 10 nM GrpE; TICO buffer, 1 mM ATP and regeneration system
# [2] = molecular target: AceE fragment 5, stalled nascent chain (E. coli); test: as above
# UniProt P0AFG8, sequence (P0AFG8 1-200): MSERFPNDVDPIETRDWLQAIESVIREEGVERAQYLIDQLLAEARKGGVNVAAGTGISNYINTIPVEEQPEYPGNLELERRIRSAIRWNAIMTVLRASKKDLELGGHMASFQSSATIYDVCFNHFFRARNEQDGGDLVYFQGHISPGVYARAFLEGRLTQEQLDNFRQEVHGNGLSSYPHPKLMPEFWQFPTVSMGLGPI
binding time (more folded nascent chains) [1],residence time (nascent chains folded by more than one-third) [2],residence time (nascent chains less than one-third folded) [2],Substance
> 50 s,,,"TF-99C, ATTO647N labelled (from UniProt P0A850 1-432) (natural protein)"
,> 10 s,< 5 s,"DnaK-290C, ATTO532 labelled (from UniProt P0A6Y8 1-638) (natural protein)"
